Assay results: PMC8188212, “Multi‐Arm PEG/Peptidomimetic Conjugate Inhibitors of DR6/APP Interaction Block Hematogenous Tumor Cell Extravasation” (Advanced Science, 2021)
Square brackets hold non-standard residues; d marks the D form. Side chains are listed from the residue outwards. Ends that are not written are not given here. maleimide = maleimide: 4-arm PEG5k maleimide reacting with the C-terminal Cys thiol

Tests used:
[1] = target: T1, DR6/APP interaction (B16F10, SGC-996, LLC1 TCs on DR6 protein coated plates) (Homo sapiens, UniProt O75509); assay: Cell attachment of TCs to DR6-coated plates; format: cell-based; conditions: 1 h at 37 °C, crystal violet, microplate reader, n = 3
T1 construct: His tag (inferred from RED-tris-NTA labelling of the same purchased protein in the MST assay); purchased Sino Biology, Inc. (Shanghai, China); host or cells: DR6 coated on 96-well plates; tumour cells B16F10, SGC-996, LLC1 carry endogenous APP
T1 sequence (O75509 42-349 limits assumed): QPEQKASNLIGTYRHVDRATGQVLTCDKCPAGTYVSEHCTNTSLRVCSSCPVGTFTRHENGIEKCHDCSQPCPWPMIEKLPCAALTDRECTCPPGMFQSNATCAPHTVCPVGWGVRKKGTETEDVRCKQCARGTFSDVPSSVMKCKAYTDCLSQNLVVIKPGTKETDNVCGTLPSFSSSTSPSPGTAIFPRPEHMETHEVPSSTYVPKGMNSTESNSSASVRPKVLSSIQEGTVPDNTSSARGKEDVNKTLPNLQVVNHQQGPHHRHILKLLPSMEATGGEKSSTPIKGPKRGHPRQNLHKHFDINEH
Protocol: DR6 protein in 50 µL PBS (50 × 10^–9 M) was added into 96‐well plates. The 96‐well plates were incubated for 2 h at 37 °C, followed by drying overnight at 4 °C. Next day, the 96‐well plates were warmly washed three times with PBS, and then blocked by PBS containing 1% BSA for 1 h at 37 °C. The plates were washed three times with PBS. TCs were suspended in serum‐free DMEM at a density of 3 × 10^5 cells mL^–1; 50 µL of the cell suspension was added to wells coated with the DR6‐targeting peptides. Different concentrations of DR6‐targeting peptides or PBS were added into the plates. After incubation at 37 °C for 1 h, non‐adherent cells were gently washed away with PBS, fixed with 4% paraformaldehyde at room temperature for 30 min, washed, stained with 5% crystal violet 50 µL per well for 10 min, gently washed with PBS, and decolorized with 33% acetic acid. The attachment cell number was measured by a microplate reader.^[ ^53 ^]

[2] = In vivo safety analysis in healthy mice; parameters: species or system C57BL/6 mice; conditions: intravenous
Protocol: For evaluating the toxicity of peptides in vivo, 6 week old healthy mice were intravenously injected with AHP‐DRI‐12 and PEG‐tAHP‐DRI (0.2 µg g^–1 AHP‐DRI‐12). After 2 and 15 days, mice were sacrificed and serum samples were collected for the biochemical analysis (ALT, AST, BRU, and URE). Tissue samples from various organs were collected for tissue sections. The tissue sections were analyzed by H&E staining and immunohistochemistry analysis.

[3] = system: TCs over HUVECs monolayer; assay: Transendothelial migration of TCs over HUVEC monolayer; format: cell-based, human; conditions: AHP-DRI-12 and PEG-tAHP-DRI 1 × 10^−6 M (AHP-DRI-12), Nec-1 30 × 10^–6 M, zVAD 100 × 10^–6 M; 48 h; compared with control; n = 3
Protocol: HUVECs (1 × 10^5) in DMEM were added into 24‐well plate transwell upper chambers and the medium was changed every 2 days. Using the EVOM resistance tester, the transendothelial resistance was measured daily. When the TEER resistance value was >200 Ωcm^2, the cells grew into a monolayer of tight connection. 2 × 10^5 GFP‐TCs were added into upper chambers. One milliliter DMEM containing 10% FBS was added into lower chambers overnight. AHP‐DRI‐12 and PEG‐tAHP‐DRI (1 ×10^–6 M AHP‐DRI‐12), Nec‐1 (30 × 10^–6 M), and zVAD (100 × 10^–6 M) were added in upper chambers, respectively. After incubation for 48 h, cells in lower chambers were observed by fluorescence microscope.^[ ^56 ^]

[4] = target: hERG potassium channel (Homo sapiens, UniProt Q12809); assay: Whole-cell patch clamp recording of hERG current; format: cell-based; conditions: cisapride as positive control
Chain of hERG potassium channel (Q12809 whole entry): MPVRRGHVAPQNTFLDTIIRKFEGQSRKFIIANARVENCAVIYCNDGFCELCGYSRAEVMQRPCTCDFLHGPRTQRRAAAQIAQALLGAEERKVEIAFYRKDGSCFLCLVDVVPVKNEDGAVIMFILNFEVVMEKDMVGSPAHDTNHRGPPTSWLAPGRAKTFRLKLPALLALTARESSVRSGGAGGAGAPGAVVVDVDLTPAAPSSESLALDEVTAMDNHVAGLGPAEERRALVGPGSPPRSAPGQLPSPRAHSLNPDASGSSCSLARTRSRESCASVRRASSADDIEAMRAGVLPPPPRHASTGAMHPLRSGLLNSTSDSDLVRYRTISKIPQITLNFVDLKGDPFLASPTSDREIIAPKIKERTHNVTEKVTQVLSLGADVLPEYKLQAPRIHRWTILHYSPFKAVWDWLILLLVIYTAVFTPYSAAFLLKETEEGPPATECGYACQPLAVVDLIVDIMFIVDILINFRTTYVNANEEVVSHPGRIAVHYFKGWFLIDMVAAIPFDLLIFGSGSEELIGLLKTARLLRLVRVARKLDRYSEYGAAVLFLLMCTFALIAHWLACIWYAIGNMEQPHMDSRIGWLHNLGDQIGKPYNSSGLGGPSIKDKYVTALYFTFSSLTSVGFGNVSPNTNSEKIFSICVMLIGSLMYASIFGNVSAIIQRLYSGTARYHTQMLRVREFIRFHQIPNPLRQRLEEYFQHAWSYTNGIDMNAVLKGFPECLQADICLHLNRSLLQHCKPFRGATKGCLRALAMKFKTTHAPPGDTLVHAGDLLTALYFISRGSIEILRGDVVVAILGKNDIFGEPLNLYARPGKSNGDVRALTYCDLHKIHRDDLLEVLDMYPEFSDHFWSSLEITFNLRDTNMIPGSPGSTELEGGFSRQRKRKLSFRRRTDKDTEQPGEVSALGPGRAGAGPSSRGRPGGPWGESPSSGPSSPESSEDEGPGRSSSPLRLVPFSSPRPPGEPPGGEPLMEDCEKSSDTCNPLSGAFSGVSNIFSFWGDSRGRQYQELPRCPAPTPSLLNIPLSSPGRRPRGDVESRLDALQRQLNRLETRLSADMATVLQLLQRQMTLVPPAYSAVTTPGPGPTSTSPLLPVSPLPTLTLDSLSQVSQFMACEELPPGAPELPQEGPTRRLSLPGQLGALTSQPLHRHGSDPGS
Protocol: In addition, some common adverse effects suffered by frequently used medications were also evaluated. The whole‐cell patch clamp recording technique was used to record the whole‐cell hERG‐potassium to measure the cardiac toxicity of peptidomimetic agents on hERG potassium channel by utilizing cisapride as positive control (Figure 6E; Figure S10, Supporting Information). […] Meanwhile, the blood biochemical indexes of ligand‐treated mice sacrificed on day 2 or day 15 were tested to examine the influences of peptidomimetic agents to liver and kidney (Figure S11, Supporting Information).

[5] = system: RIPK1, RIPK3, MLKL and their phosphorylated states in HUVECs; assay: Western blot of necroptosis pathway proteins; format: cell-based, human; conditions: 24 h, 0.1, 1.0, 10 × 10^–6 M AHP-DRI-12
Protocol: Western blot assay was conducted to examine the expression level of RIPK1, RIPK3, MLKL, and their phosphorylated states that were downstream protein of DR6. Briefly, 5 × 10^5 HUVECs were added in six‐well plates and grown overnight. Next day, HUVECs were treated with TSZ, AHP‐DRI‐12, and PEG‐tAHP‐DRI (0.1 × 10^–6, 1.0 × 10^–6, 10 × 10^–6 M AHP‐DRI‐12), respectively. After incubating for 24 h, HUVECs were washed with PBS, harvested, and mixed with 150 µL cell lysate buffer/well (Beyotime, China). Protein samples were collected after incubation at 4 ℃ for 30 min. Protein samples were centrifuged at 4 °C and 12 000 rpm for 10 min, and the supernatant was collected as samples. Each sample was then separated by 12% SDS–PAGE, followed by transferring to polyvinylidene difluoride membranes. Finally, samples were incubated with antibodies. HRP‐labeled secondary antibodies were added and measured using an imaging system.

[6] = system: HUVECs; assay: MTT cytotoxicity assay; format: cell-based, human; conditions: up to 10 × 10^−6 M, 24, 48, 72 h, n = 3
Protocol: To evaluate the cytotoxicity of DR6‐targeting peptides, MTT assay was conducted. Briefly, 4 × 10^3 HUVECs were added in 96‐well plates and grown overnight before incubating with AHP‐DRI‐12 and PEG‐tAHP‐DRI (0.1 × 10^–6, 1.0 × 10^–6, 10 ×10^–6 M AHP‐DRI‐12). After incubating for 24, 48, and 72 h, 100 µL of 0.5 mg mL^–1 MTT was added to each well, and the plates were incubated at 37 °C for 4 h. After the removal of the supernatant, the precipitate was dissolved in 150 µL dimethyl sulfoxide, and the absorbance was measured at 490 nm using a microplate reader.

[7] = DAPI staining of lung sections after injection of FITC-labeled ligand; format: in vivo; conditions: FITC-labeled ligand intravenously, lungs isolated 30 min later, confocal
Protocol: FITC‐labeled AHP‐DRI‐12 and PEG‐tAHP‐DRI were injected intravenously and 30 min later, lungs were isolated to prepare frozen sections. The frozen sections were stained with DAPI. The representative images were taken on a confocal microscope.

[8] = healthy C57BL/6 mice, day 2 or 15

## PEG-tAHP-DRI: tetra-(D-retro-inverso isomer of AHP-12) substitued 4-arm PEG5k ([dP][dT][dT][dA][dD][dI][dT]C([maleimide-4‑arm PEG5k]); also: four peptides on one 4-arm PEG5k)
[1]
  disruption of attachment between TCs and DR6-coated plates: most obvious disruption of attachment
[2]; [8]
  apoptotic cells in tissues, TUNEL staining: no obvious increase in apoptotic cells
  damage to vessels, CD31 staining: could not cause damage to the vessels
  downstream signaling pathway of DR6 (p-RIPK1, p-IκB-α, caspase 8 staining): could not be impacted
[2]; healthy mice, 0.2 µg g^–1 AHP-DRI-12, sacrificed day 2 or day 15
  damage to liver or kidney, blood biochemical indexes (ALT, AST, BRU, URE): could not cause any damage to liver or kidney
[3]
  TCs transendothelial migration: significantly attenuated TCs transendothelial migration
[4]
  inhibitory effect on hERG channels: no significant inhibitory effect
[5]
  native activation of necroptosis pathway (expression levels of p-RIPK1, p-RIPK3, p-MLKL): could not initialize necroptosis pathway
[6]
  HUVECs cell viability: remained essentially unchanged
[7]
  binding potency and proteolytic stability in vivo by FITC fluorescence on lung frozen sections: best proteolytic stability
